Assay results taken from patent EP4624492A1 (Shanghai Hongcheng Biopharmaceutical Co., Ltd., dated 2025).
Like-named read-outs stand apart in the source and are kept apart here.

Assays:
[1] = target: T1, human CCR8 (human, UniProt P51685 1-355); test: flow cytometry, competition with 10 nM AF647-human CCL1 on 293F-hCCR8 cells
T1 construct: whole, on cells; the cell line is named under assay; also called hCCR8

[2] = target: T1, human CCR8; test: flow cytometry on 293F-hCCR8 cells
[3] = target: T1, human CCR8; test: cell-based or functional assay
[4] = target: T1, human CCR8; test: cell-based or functional assay; remark: listed apart in the source
[5] = target: T1, human CCR8; test: flow cytometry on 293F-hCCR8 cells; remark: listed apart in the source
[6] = target: T1, human CCR8; test: flow cytometry, competition with 10 nM AF647-human CCL1 on 293F-hCCR8 cells; remark: listed apart in the source
[7] = target: T1, human CCR8; test: cell-based or functional assay; remark: listed apart in the source
[8] = target: T1, human CCR8; test: cell-based or functional assay; remark: listed apart in the source
[9] = target: T2, cynomolgus CCR8 (cynomolgus monkey); test: flow cytometry, hybridoma supernatant on CHOK1-cynoCCR8 cells
T2 construct: whole, on cells; the constructs of the cell lines are not tied to it word for word; also called cynoCCR8

[10] = target: T1, human CCR8; test: flow cytometry, competition with 10 nM AF647-human CCL1 on 293F-hCCR8 cells; remark: listed apart in the source
[11] = target: T2, cynomolgus CCR8; test: flow cytometry on 293T-cynoCCR8 cells
[12] = target: T1, human CCR8; test: flow cytometry on 293F-hCCR8 cells; remark: listed apart in the source
[13] = target: T1, human CCR8; test: flow cytometry, hybridoma supernatant on CHOK1-hCCR8 cells

IC50 [1]	EC50 [2]	IC50 of blockade of CCL1-induced β-arrestin recruitment [3]	EC50 of activation of Jurkat-human FcγRIIIa(158V)-NFAT with 293F-hCCR8 target cells [4]	Binder	also measured
0.121 µg/mL	0.133 µg/mL	71.2 µg/mL	0.0344 µg/mL	559E1B10_hzH3L2_hIgG1 (antibody, Humanized, hIgG1/K) heavy: not shown light: DIVMTQSPATLSLSPGERATLSCRASQSISDYLHWYQQKPGQAPRLLLKYVSQSISGIPARFSGSGSGTDFTLTISSLEPEDFAVYYCQNGHSFPLTFGGGTKVEIKRTVAAPSVFIFPPSDEQLKSGTASVVCLLNNFYPREAKVQWKVDNALQSGNSQESVTEQDSKDSTYSLSSTLTLSKADYEKHKVYACEVTHQGLSSPVTKSFNRGEC	
0.088 µg/mL	0.176 µg/mL	14.8 µg/mL	0.028 µg/mL	559E1B10_hzH3L1_hIgG1 (antibody, Humanized, hIgG1/K) heavy: not shown light: EIVLTQSPATLSLSPGERATLSCRASQSISDYLHWYQQKPGQAPRLLLKYVSQSISGIPARFSGSGSGTDFTLTISSLEPEDFAVYYCQNGHSFPLTFGGGTKVEIKRTVAAPSVFIFPPSDEQLKSGTASVVCLLNNFYPREAKVQWKVDNALQSGNSQESVTEQDSKDSTYSLSSTLTLSKADYEKHKVYACEVTHQGLSSPVTKSFNRGEC	

Continued, binder first:

Binder	IC50 [1]	EC50 [2]	IC50 of blockade of CCL1-induced β-arrestin recruitment [3]	EC50 of activation of Jurkat-human FcγRIIIa(158V)-NFAT with 293F-hCCR8 target cells [4]	also measured
559E1B10_hzH2L1_hIgG1 (antibody, Humanized, hIgG1/K) heavy: not shown light: EIVLTQSPATLSLSPGERATLSCRASQSISDYLHWYQQKPGQAPRLLLKYVSQSISGIPARFSGSGSGTDFTLTISSLEPEDFAVYYCQNGHSFPLTFGGGTKVEIKRTVAAPSVFIFPPSDEQLKSGTASVVCLLNNFYPREAKVQWKVDNALQSGNSQESVTEQDSKDSTYSLSSTLTLSKADYEKHKVYACEVTHQGLSSPVTKSFNRGEC	0.102 µg/mL	0.141 µg/mL	46.5 µg/mL	0.0292 µg/mL	
559E1B10_hzH0L2_hIgG1 (antibody, Humanized, hIgG1/K) heavy: not shown light: DIVMTQSPATLSLSPGERATLSCRASQSISDYLHWYQQKPGQAPRLLLKYVSQSISGIPARFSGSGSGTDFTLTISSLEPEDFAVYYCQNGHSFPLTFGGGTKVEIKRTVAAPSVFIFPPSDEQLKSGTASVVCLLNNFYPREAKVQWKVDNALQSGNSQESVTEQDSKDSTYSLSSTLTLSKADYEKHKVYACEVTHQGLSSPVTKSFNRGEC	0.0413 µg/mL	0.0979 µg/mL	11.2 µg/mL	0.0286 µg/mL	
559E1B10_hzH3L0_hIgG1 (antibody, V domains shown, Humanized, hIgG1/K) VH: KVQLVQSGAEVKKPGASVKVSCKASGYTFTDYYVNWVRQAPGQGLEWIGVINPHNGDTRYNQKFKGKATLTVDKSTSTAYMELSSLRSEDTAVYYCASWLRRGYYFDSWGQGTTVTVSS VL: EIVLTQSPATLSLSPGERATLSCRASQSISDYLHWYQQKPGQAPRLLIYYVSQSISGIPARFSGSGSGTDFTLTISSLEPEDFAVYYCQNGHSFPLTFGGGTKVEIKR	0.443 µg/mL	0.13 µg/mL		0.0985 µg/mL	
559E1B10_hzH0L1_hIgG1 (antibody, Humanized, hIgG1/K) heavy: not shown light: EIVLTQSPATLSLSPGERATLSCRASQSISDYLHWYQQKPGQAPRLLLKYVSQSISGIPARFSGSGSGTDFTLTISSLEPEDFAVYYCQNGHSFPLTFGGGTKVEIKRTVAAPSVFIFPPSDEQLKSGTASVVCLLNNFYPREAKVQWKVDNALQSGNSQESVTEQDSKDSTYSLSSTLTLSKADYEKHKVYACEVTHQGLSSPVTKSFNRGEC	0.0438 µg/mL	0.135 µg/mL	118 µg/mL	0.0305 µg/mL	
559E1B10_hzH1L2_hIgG1 (antibody, Humanized, hIgG1/K) heavy: not shown light: DIVMTQSPATLSLSPGERATLSCRASQSISDYLHWYQQKPGQAPRLLLKYVSQSISGIPARFSGSGSGTDFTLTISSLEPEDFAVYYCQNGHSFPLTFGGGTKVEIKRTVAAPSVFIFPPSDEQLKSGTASVVCLLNNFYPREAKVQWKVDNALQSGNSQESVTEQDSKDSTYSLSSTLTLSKADYEKHKVYACEVTHQGLSSPVTKSFNRGEC	0.0769 µg/mL	0.15 µg/mL	7.33 µg/mL	0.0325 µg/mL	
559E1B10_hzH2L2_hIgG1 (antibody, Humanized, hIgG1/K) heavy: not shown light: DIVMTQSPATLSLSPGERATLSCRASQSISDYLHWYQQKPGQAPRLLLKYVSQSISGIPARFSGSGSGTDFTLTISSLEPEDFAVYYCQNGHSFPLTFGGGTKVEIKRTVAAPSVFIFPPSDEQLKSGTASVVCLLNNFYPREAKVQWKVDNALQSGNSQESVTEQDSKDSTYSLSSTLTLSKADYEKHKVYACEVTHQGLSSPVTKSFNRGEC	0.14 µg/mL	0.204 µg/mL	6.69 µg/mL	0.033 µg/mL	
569D11B5_hIgG1 (antibody, also called hIgG1-subclass chimeric antibody 569D11B5) heavy: not shown light: DIVMTQAAFSNPVTLGTSASISCRSSKSLLHSNGITYLFWYLQKPGQSPQLLIYQMSNLASGVPDRFSGSGSGTDFTLRISRVEAEDVGVYYCAQSLELPLTFGGGTKLEIKRTVAAPSVFIFPPSDEQLKSGTASVVCLLNNFYPREAKVQWKVDNALQSGNSQESVTEQDSKDSTYSLSSTLTLSKADYEKHKVYACEVTHQGLSSPVTKSFNRGEC					EC50 [5]: 0.113 µg/mL; IC50 [6]: 0.0748 µg/mL
563E10E12_hzH1L0_VLPLL (antibody, human IgG1, kappa) heavy: EVQLVESGGGLVQPGGSLKLSCAASGFNFNAYAMNWVRQASGKGLEWVGRIRSKSNNFATYYADSVTDRFTISRDDSKNTAYLQMNSLKTEDTAVYYCVRHGRRDLLYSMDFWGQGTTVTVSSASTKGPSVFPLAPSSKSTSGGTAALGCLVKDYFPEPVTVSWNSGALTSGVHTFPAVLQSSGLYSLSSVVTVPSSSLGTQTYICNVNHKPSNTKVDKKVEPKSCDKTHTCPPCPAPELVGGPSVFLLPPKPKDTLMISRTPEVTCVVVDVSHEDPEVKFNWYVDGVEVHNAKTKPPEEQYNSTLRVVSVLTVLHQDWLNGKEYKCKVSNKALPAPIEKTISKAKGQPREPQVYTLPPSRDELTKNQVSLTCLVKGFYPSDIAVEWESNGQPENNYKTTPLVLDSDGSFFLYSKLTVDKSRWQQGNVFSCSVMHEALHNHYTQKSLSLSPGK light: DIVMTQSPLSLPVTPGEPASISCRSSKSLLHSNGITYLFWYLQKPGQSPQLLIYQMSNLASGVPDRFSGSGSGTDFTLKISRVEAEDVGVYYCAQSLELPLTFGGGTKVEIKRTVAAPSVFIFPPSDEQLKSGTASVVCLLNNFYPREAKVQWKVDNALQSGNSQESVTEQDSKDSTYSLSSTLTLSKADYEKHKVYACEVTHQGLSSPVTKSFNRGEC					EC50 of activation of Jurkat-human FcγRIIIa(158V)-NFAT with 293F-hCCR8 target cells [7]: 0.0017 µg/mL; EC50 of activation of Jurkat-human FcγRIIIa(158V)-NFAT with HuT78 target cells [8]: 0.0117 µg/mL
589D7C7_hIgG1 (antibody, also called hIgG1-subclass chimeric antibody 589D7C7) heavy: not shown light: DIVMTQAAFSNPVTLGTSASISCRSSKSLLHSNGITYLFWYLQKPGQSPQLLIYQMSNLASGVPDRFSGSGSGTDFTLRISRVEAEDVAVYYCAQSLELPLTFGGGTKLEIKRTVAAPSVFIFPPSDEQLKSGTASVVCLLNNFYPREAKVQWKVDNALQSGNSQESVTEQDSKDSTYSLSSTLTLSKADYEKHKVYACEVTHQGLSSPVTKSFNRGEC					EC50 [5]: 0.164 µg/mL; IC50 [6]: 0.0526 µg/mL
27B9-1G3 (antibody, V domains shown, Murine hybridoma antibody (supernatant or Protein A purified); also called 27B9-1G3 hybridoma antibody) VH: EIQLQQSGPELEKPGASVKISCKASGYSFTGYNMNWVKKSNGKSLEWIGNIDPYYGGTNYNQKFKGKATLTVDKSSSTAYMQLKSLTSEDSAVYYCARETWFITTGVIKKGFYFDYWGQGTTLTVSS VL: EIVLTQSPTTMAASPGEKITLACSASSIISSNYLHWYQQKPGFSPKLLIYRTSSLASGVPARFSGSGSGTSYSLTIGTMEAEDVATYYCQQGSSIPRTFGGGTKLEIK					MFI [9]: 14000 MFI; IC50 [10]: 0.127 µg/mL; EC50 [11]: 0.146 µg/mL; EC50 [12]: 0.15 µg/mL; MFI [13]: 2660 MFI
559E1B10_hIgG1 (antibody, also called hIgG1-subclass chimeric antibody 559E1B10) heavy: not shown light: DIVMTQSPATLSVTPGDRVSLSCRASQSISDYLHWYQQKSHESPRLLLKYVSQSISGIPSRFSGSGSGSDFTLTINSVEPEDVGVYYCQNGHSFPLTFGAGTKLELKRTVAAPSVFIFPPSDEQLKSGTASVVCLLNNFYPREAKVQWKVDNALQSGNSQESVTEQDSKDSTYSLSSTLTLSKADYEKHKVYACEVTHQGLSSPVTKSFNRGEC	0.125 µg/mL	0.101 µg/mL	10.2 µg/mL	0.0401 µg/mL	EC50 [5]: 0.0617 µg/mL; IC50 [6]: 0.0549 µg/mL
563E10E12 (antibody, V domains shown, Murine hybridoma antibody; also called 563E10E12 hybridoma antibody) VH: EVQLIESGGGLVQPKGSLKLSCAASGFNFNAYAMNWVRQAPGKGLEWVARIRSKSNNFATYYADSVTDRFTISRDDSESMLYLQMNNLKTEDTAMYYCVRHGRRDLLYSMDFWGQGTSVTVSS VL: DVVMTQAAFSNPVTLGTSTSISCRSSKSLLHSNGITYLFWYLQKPGQSPQLLIYQMSNLASGVPDRFSGSGSGTDFTLRISRVEAEDVGVYYCAQSLELPLTFGGGTKLEIK					MFI [9]: 16900 MFI; IC50 [10]: 0.132 µg/mL; EC50 [11]: 0.591 µg/mL; EC50 [12]: 0.195 µg/mL; MFI [13]: 6370 MFI
569D11B5 (antibody, V domains shown, Murine hybridoma antibody; also called 569D11B5 hybridoma antibody) VH: EVQLIESGGGLVQPKGSLKLSCAASGFNFNAYAMNWVRQAPGKGLEWVARIRSKSNDFATYYADSVKGRFTISRDDSENMLFLQMNNLKTEDTAMYYCVRHGRRDLLYSMDFWGQGTSVTVSS VL: DIVMTQAAFSNPVTLGTSASISCRSSKSLLHSNGITYLFWYLQKPGQSPQLLIYQMSNLASGVPDRFSGSGSGTDFTLRISRVEAEDVGVYYCAQSLELPLTFGGGTKLEIK					MFI [9]: 13200 MFI; IC50 [10]: 0.0882 µg/mL; EC50 [11]: 0.444 µg/mL; EC50 [12]: 0.159 µg/mL; MFI [13]: 5800 MFI
